The target of data set [1] is EhODC Cys334Ala mutant (Entamoeba histolytica). Nature of the data set: SEC; gel filtration of the active-site mutants, data not shown.
Data set [2] addresses EhODC Gly361Tyr mutant (Entamoeba histolytica). Nature of the data set: SEC; HiLoad 16/60 Superdex 200, buffer B (50 mM Tris-HCl pH 7.5, 250 mM NaCl, 0.2 mM DTT, 5% glycerol), 500 µl of ~10 mg/ml protein, 0.5 ml/min, calibrated with HMW standards; the wild type was also run after 4 h at 4°C with 2 M or 4 M NaCl or urea (partial dissociation to monomer).
The target in data set [3] is EhODC Cys334Ala mutant (Entamoeba histolytica).
Data set [4] addresses EhODC Lys57Ala mutant (Entamoeba histolytica). Description: SEC; gel filtration of the active-site mutants, data not shown.
Data set [5] has as its target EhODC Lys157Ala mutant (Entamoeba histolytica). Nature of the data set: SEC; HiLoad 16/60 Superdex 200, buffer B (50 mM Tris-HCl pH 7.5, 250 mM NaCl, 0.2 mM DTT, 5% glycerol), 500 µl of ~10 mg/ml protein, 0.5 ml/min, calibrated with HMW standards; the wild type was also run after 4 h at 4°C with 2 M or 4 M NaCl or urea (partial dissociation to monomer).
Data set [6] concerns the molecule itself. Nature of the data set: cross-linking; glutaraldehyde vapour (12.5%, acidified) over a hanging drop of 15 µl protein at 1 mg/ml in 20 mM sodium phosphate pH 7.5, 37°C, 10 min; 12% SDS-PAGE, Coomassie.

For the molecule EhODC Cys334Ala mutant (enzyme), in data set [1], the stoichiometry N is 2.
For the molecule EhODC Gly361Tyr mutant (enzyme), the stoichiometry N in data set [2] worked out at 2.
For the molecule EhODC Lys57Ala mutant (enzyme), the ornithine decarboxylase activity (colorimetric DAO/HRP assay) of the two inactive mutants mixed in equal concentration (1:1), relative to wild type; each mutant alone ~2% (% of wild-type activity) in data set [3] is 29. Also, the stoichiometry N in data set [4] came to 2.
For the molecule EhODC Lys157Ala mutant (enzyme), in data set [5], the stoichiometry N turned out to be 2.

B1: Ornithine decarboxylase from Entamoeba histolytica (EhODC), wild type (enzyme, UniProt Q58P26 1-413, looked up)
chain: MKQTSLEVKEFALNLISQFEPENQPLGFWIFDTEGVEKAVERWKKNMPTVRPCFAVKCNPEPHLVKLLGELGCGFDCASLNEIKEVLDLGFNPEDITYSQTFKPYNQLIEASHLGINHTIVDSIDEVQKIAKYAPKMGIMIRIMENDTSAGHVFGEKFGLHDDEVEIVLKEIKDKGLNLDGVHFHVGSDSHNSEVFTKALTKARNTVTLAEQFGMKPYLIDIGGGFSQVAPFEEFAATIEKTIKELEFPERTRFIAEPGRYMASNAFHLVSSLHGKRVRIQNGKKQIEYTSGDGLHGSFGCCIWFEKQKSCECITQKVNENTKMYESIIYGPSCNGSDKVATQELPEMEPGKDWLLFPNMGAYTISMATNFNGFEERNHVIYTLPLKSTKIIQIPKSIECNSVPSLNGIPHYA
notes: Ornithine decarboxylase, Entamoeba histolytica, NCBI AAX35675, 413 amino acids, predicted 46.43 kDa; full-length gene in pET30a; The His tag is followed by an enterokinase site and was removed before gel filtration; PLP is the cofactor; also called E. histolytica ODC; source: E. coli BL21 (DE3), purified (HisTrap HP, enterokinase cleavage, second HisTrap, Superdex 200); not shown: His6, …
For B1, the “stoichiometry N” value in data set [6] is 2.

For the origin of these results see publication PMC3289617, “Biochemical, Mutational and In Silico Structural Evidence for a Functional Dimeric Form of the Ornithine Decarboxylase from Entamoeba histolytica” (PLoS Neglected Tropical Diseases, 2012).
